Test system: peptide library, one residue held at a place counted from the S/T acceptor
Assay: relative phosphorylation of the sub-library (ratio to the mean residue at this position); higher = residue favoured
Conditions: human
Method in brief: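 Relative sub-library phosphorylation is a ratio to the mean residue at the same position. Purified recombinant kinases were incubated under kinase-specific conditions with biotinylated degenerate peptide sub-libraries, each fixing one residue at one position around a central Ser/Thr, using 50 μM peptide and 50 μM ATP spiked with γ-32P-ATP for 90 min. Spots captured on streptavidin membranes were phosphorimaged and quantified by densitometry.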

Sequence of ACVR2B, construct: aa161-end (Q13705 161-512, looked up): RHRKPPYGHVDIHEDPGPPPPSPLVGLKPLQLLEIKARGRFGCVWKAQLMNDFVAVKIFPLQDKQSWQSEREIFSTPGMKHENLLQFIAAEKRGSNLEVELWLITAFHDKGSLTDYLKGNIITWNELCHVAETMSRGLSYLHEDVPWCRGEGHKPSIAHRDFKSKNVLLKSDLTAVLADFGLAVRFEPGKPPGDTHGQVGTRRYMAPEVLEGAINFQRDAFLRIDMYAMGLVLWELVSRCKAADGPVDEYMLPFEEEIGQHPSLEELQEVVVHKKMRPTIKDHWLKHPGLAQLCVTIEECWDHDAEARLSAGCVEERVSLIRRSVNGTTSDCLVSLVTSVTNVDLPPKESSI
Sequence of DAPK3, construct: aa1-404 (O43293 1-404, looked up): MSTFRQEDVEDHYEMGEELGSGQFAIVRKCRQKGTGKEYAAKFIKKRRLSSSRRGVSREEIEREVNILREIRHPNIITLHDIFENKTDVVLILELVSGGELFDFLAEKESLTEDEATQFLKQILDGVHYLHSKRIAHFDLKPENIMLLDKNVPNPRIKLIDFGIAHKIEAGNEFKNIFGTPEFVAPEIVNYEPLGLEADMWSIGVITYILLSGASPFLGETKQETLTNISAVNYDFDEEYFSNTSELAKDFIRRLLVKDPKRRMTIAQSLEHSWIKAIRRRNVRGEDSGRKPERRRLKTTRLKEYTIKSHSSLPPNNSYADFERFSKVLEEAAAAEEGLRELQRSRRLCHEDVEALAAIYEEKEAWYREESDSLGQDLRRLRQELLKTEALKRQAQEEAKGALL
Sequence of CDK1, construct: Full length (P06493 whole entry, looked up): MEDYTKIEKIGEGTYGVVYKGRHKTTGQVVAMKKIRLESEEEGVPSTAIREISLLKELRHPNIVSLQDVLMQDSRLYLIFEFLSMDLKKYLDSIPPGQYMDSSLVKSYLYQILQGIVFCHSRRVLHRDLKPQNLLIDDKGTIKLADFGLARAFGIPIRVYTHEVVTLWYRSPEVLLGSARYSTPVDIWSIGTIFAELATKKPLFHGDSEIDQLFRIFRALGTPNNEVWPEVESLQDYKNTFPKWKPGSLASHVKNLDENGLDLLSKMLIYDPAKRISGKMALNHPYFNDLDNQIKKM

BCKDK, construct: Full length (from UniProt O14874)
relative phosphorylation
Conditions	at +1	at +2	at +3	at +4	at -1	at -2	at -3	at -4	at -5
A fixed	0.707	0.962	0.785	0.937	0.696	0.951	0.894	0.988	1.02
D fixed	0.393	1.11	2.51	0.922	1.32	0.571	0.616	0.717	0.856
E fixed	0.404	0.981	1.16	0.957	0.351	0.544	0.654	0.821	0.72
F fixed	0.915	0.909	1.11	1.13	0.742	1.19	1.26	1.14	1.18
G fixed	0.489	1.36	1.11	0.99	1.3	1.72	1.09	1.18	1.14
H fixed	0.698	1.31	0.929	0.973	1.69	1.33	1.17	1.14	1.26
I fixed	1.59	0.502	0.71	0.645	0.565	0.913	0.854	0.871	0.794
K fixed	0.483	0.704	0.538	0.577	0.425	0.901	0.8	0.886	1.02
L fixed	2.58	0.628	1.03	0.656	0.607	0.855	0.877	0.964	0.858
M fixed	2.1	0.966	0.889	0.781	0.577	1.05	1.01	1.1	0.962
N fixed	0.513	1.16	0.754	0.761	4.15	0.917	0.932	0.786	0.944
P fixed	0.404	0.61	0.831	1.08	0.432	0.866	0.976	1.05	0.819
Q fixed	0.69	1.17	0.749	0.724	0.619	0.867	0.804	0.75	0.678
R fixed	0.671	1.43	0.834	0.859	0.562	0.893	1.02	0.937	1.01
V fixed	1.84	0.553	0.641	0.709	0.514	0.699	0.734	0.791	0.879
W fixed	0.688	1.35	1.53	2.53	1.06	1.51	1.74	1.64	1.73
Y fixed	1.84	1.28	0.896	1.76	1.39	1.23	1.57	1.24	1.13
pThr fixed	0.535	0.616	0.681	0.682	0.541	0.847	0.904	0.931	0.896
pTyr fixed	0.502	0.681	0.53	1.46	0.581	0.994	1.31	1.14	0.896

DAPK3, construct: aa1-404 (from UniProt O43293)
relative phosphorylation
Conditions	at +1	at +2	at +3	at +4	at -1	at -2	at -3	at -4	at -5
A fixed	0.877	0.903	0.724	0.839	0.73	1.06	0.654	1	0.953
D fixed	1.61	0.84	0.753	0.791	0.823	0.448	0.447	0.844	0.79
E fixed	1.69	0.976	0.719	0.706	0.601	0.398	0.393	0.85	0.666
F fixed	0.52	0.932	1.02	1.14	0.667	0.338	0.412	0.759	0.583
G fixed	1.15	0.661	0.89	0.939	0.888	0.74	0.636	0.947	1.03
H fixed	0.825	1.01	1.04	1.51	1.29	1.24	0.835	1.1	1.17
I fixed	0.786	0.873	1.95	0.95	0.58	0.313	0.311	0.645	0.73
K fixed	0.595	0.789	0.685	0.712	1.48	1.33	2.51	1.65	1.59
L fixed	0.707	1.44	1.63	0.902	0.946	0.361	0.365	0.677	0.927
M fixed	1.15	1.5	1.08	0.984	0.943	0.415	0.422	0.871	0.912
N fixed	1.33	1.03	0.776	1	1.69	0.952	0.548	0.85	0.891
P fixed	0.309	0.9	0.78	0.885	1.06	0.406	0.703	0.854	0.959
Q fixed	2.62	1.25	0.804	0.797	1.15	0.989	0.769	1.04	0.942
R fixed	0.811	1.13	0.942	1.03	1.71	6.46	6.61	2.25	2.36
V fixed	0.807	0.827	1.41	0.927	0.698	0.397	0.294	0.844	0.699
W fixed	0.638	0.941	0.984	1.61	0.753	0.755	0.634	1.02	0.776
Y fixed	0.582	1.01	0.808	1.28	1	0.401	0.462	0.803	1.01
pThr fixed	1.83	1.01	0.854	1.04	0.695	0.53	0.633	0.84	0.973
pTyr fixed	1.19	1.02	1.35	1.08	0.957	0.623	0.605	0.929	1.1

CDK1, construct: Full length (from UniProt P06493)
relative phosphorylation
Conditions	at +1	at +2	at +3	at +4	at -1	at -2	at -3	at -4	at -5
A fixed	0.334	1.04	0.598	0.854	0.927	1	0.841	0.996	1.04
D fixed	0.205	0.814	0.505	0.941	1.21	1.03	1.26	1.56	1.55
E fixed	0.231	0.724	0.425	0.786	0.927	0.898	1.25	1.38	1.36
F fixed	0.187	0.68	0.396	0.78	0.639	0.853	0.825	0.825	0.882
G fixed	0.717	1.13	0.852	1.1	1.43	1.29	1.31	1.14	1.4
H fixed	0.244	1.18	0.907	1.23	0.744	0.87	1.01	0.908	0.893
I fixed	0.21	0.694	0.346	0.758	0.352	0.669	0.663	0.654	0.751
K fixed	0.331	1.86	5.37	1.83	1.65	0.597	1.01	0.973	1.11
L fixed	0.228	0.752	0.403	0.792	0.62	0.89	0.743	0.69	0.799
M fixed	0.24	0.839	0.423	0.913	0.85	1.04	0.761	0.806	0.759
N fixed	0.299	1.19	0.838	1.12	1.27	0.803	1.11	1.01	0.944
P fixed	12.4	1.04	0.999	1.08	1.61	3.11	1.84	1.49	1.16
Q fixed	0.292	1.16	0.798	1.02	1.22	0.856	0.976	0.922	0.86
R fixed	0.324	1.64	2.82	1.21	1.4	0.649	0.921	1.02	0.934
V fixed	0.295	0.656	0.413	0.695	0.483	0.687	0.705	0.586	0.718
W fixed	0.213	0.769	0.485	0.973	0.758	0.935	0.883	1.05	0.852
Y fixed	0.202	0.842	0.415	0.924	0.897	0.825	0.893	0.985	0.99
pThr fixed	0.851	1.38	1.59	0.946	0.621	1.16	1.3	1.43	1.74
pTyr fixed	0.777	0.913	1.36	1.08	0.885	1.28	1.48	1.42	1.66

ACVR2B, construct: aa161-end (from UniProt Q13705)
relative phosphorylation
Conditions	at +1	at +2	at +3	at +4	at -1	at -2	at -3	at -4	at -5
A fixed	0.595	1.11	0.975	1.11	0.803	0.672	0.922	0.979	0.962
D fixed	2.06	1.33	0.992	1.24	1.46	3.9	1.99	1.75	1.81
E fixed	3.92	1.1	1.26	1.18	1.31	5.09	2	1.49	1.53
F fixed	0.786	0.848	0.958	0.819	1.01	0.514	0.898	1.06	1.03
G fixed	0.531	1.27	1.09	0.987	0.57	0.472	0.941	1.07	0.878
H fixed	0.823	0.877	0.867	0.955	1.01	0.664	0.928	1.04	0.88
I fixed	0.875	0.985	1	0.924	0.746	0.396	0.77	0.78	0.752
K fixed	0.372	0.75	0.617	0.767	0.554	0.403	0.722	0.644	0.734
L fixed	0.752	0.69	1.17	0.901	1.38	0.532	0.725	0.88	0.8
M fixed	0.917	0.868	1.03	0.887	1.37	0.458	0.802	0.853	0.878
N fixed	0.742	0.933	0.887	0.905	0.948	0.876	0.987	0.971	1.01
P fixed	0.316	1.41	1.18	1.22	0.595	0.335	0.784	0.913	0.905
Q fixed	1.02	0.859	0.904	0.994	0.81	0.659	0.947	0.838	0.847
R fixed	0.374	0.826	0.769	0.827	0.531	0.45	0.621	0.626	0.802
V fixed	1.06	1.13	0.98	0.941	1.04	0.534	0.892	0.883	0.924
W fixed	0.969	0.954	1.13	1.33	1.56	0.512	1.11	1.2	1.23
Y fixed	0.886	1.07	1.19	0.998	1.31	0.527	0.963	1.03	1.03
pThr fixed	4.33	1.49	1.08	1.29	1.86	1.18	1.78	1.34	1.29
pTyr fixed	2.48	1.11	1.19	1.08	1.85	0.886	2.34	1.45	1.26

Reference: the supplement of paper PMC9876800
